# Earlier results, collected in PMC6155412.
# Biological target: FPR2 (Homo sapiens) (UniProt P25090)
# Chain of UniProt P25090 (P25090 whole entry): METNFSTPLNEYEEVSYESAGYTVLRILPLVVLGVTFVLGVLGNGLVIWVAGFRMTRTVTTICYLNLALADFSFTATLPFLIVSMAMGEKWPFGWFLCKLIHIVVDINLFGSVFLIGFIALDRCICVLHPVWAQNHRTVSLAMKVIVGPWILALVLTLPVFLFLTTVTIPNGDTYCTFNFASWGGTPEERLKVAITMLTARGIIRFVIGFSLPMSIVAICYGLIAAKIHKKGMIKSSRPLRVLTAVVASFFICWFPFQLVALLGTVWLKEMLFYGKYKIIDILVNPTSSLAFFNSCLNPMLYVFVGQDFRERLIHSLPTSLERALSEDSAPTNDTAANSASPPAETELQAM
substance,measurement,value
uteroglobin (UG) (from UniProt P11684),Kd,0.033 µM
